For 1 protein, Km and kcat results are on record in article PMC4803751, “Identification and Partial Characterization of a Novel UDP-N-Acetylenolpyruvoylglucosamine Reductase/UDP-N-Acetylmuramate:L-Alanine Ligase Fusion Enzyme from Verrucomicrobium spinosum DSM 4136^T” (Frontiers in Microbiology, 2016).

The term Km denotes the concentration of substrate that gives half-maximal velocity. One may read the kcat as the number of substrate molecules converted per active site and unit of time at saturation.

Common to all, as to experiment: radiometric HPLC assay of UDP-MurNAc-L-Ala formation
Common to all, as to type: biochemical, Verrucomicrobium spinosum

Substrate in data set [1]: Nc1ncnc2c1ncn2[C@@H]1O[C@H](COP(=O)(O)OP(=O)(O)OP(=O)(O)O)[C@@H](O)[C@H]1O
The settings on record: 1 mM UDP-MurNAc, 0.2 mM L-Ala, 10 mM MgCl2, 100 mM Tris-HCl pH 9.0, 10 mM ammonium sulfate, 0.5 mg/mL BSA, 37°C, ATP 0.2-5 mM, MurC activity. The text has this:
(§1) radiometric HPLC assay of UDP-MurNAc-L-Ala formation on MurB/CVs (MurCVs activity)

Substrate in data set [2]: CC(=O)N[C@H]1[C@@H](OP(=O)(O)OP(=O)(O)OC[C@H]2O[C@@H](n3ccc(=O)[nH]c3=O)[C@H](O)[C@@H]2O)O[C@H](CO)[C@@H](O)[C@@H]1O[C@H](C)C(=O)O
Conditions: 5 mM ATP, 0.2 mM L-Ala, 10 mM MgCl2, 100 mM Tris-HCl pH 9.0, 10 mM ammonium sulfate, 0.5 mg/mL BSA, 37°C, UDP-MurNAc 25-500 μM, labelled compound, MurC activity.
Description: as §1

Substrate in data set [3]: C[C@H](N)C(=O)O
Conditions: 5 mM ATP, 1 mM UDP-MurNAc, 10 mM MgCl2, 100 mM Tris-HCl pH 9.0, 10 mM ammonium sulfate, 0.5 mg/mL BSA, 37°C, L-Ala 10-400 μM, labelled compound, MurC activity.
Description: as §1

B1: MurB/CVs (MurCVs activity) (Verrucomicrobium spinosum) (protein)
chain: MNHAVVSLLKEGRHKMHVHLIGVAGSGMSGLALLLMELGHKVSGSDKVTTLETERMEKKGLIFHCPQSEREVEGADMVIYSSAVKPGNPAYEAAYRHGIPLVRRAEALAAIMARKHGVVVAGTHGKTTTSSMAAHVLRVGGAKPSHYVGAEIPILGSNAHWDDAGELFVAEGDESDGTLVKFEPRHAIILNIEAEHLDYYEDLNEIKLVFRQLLEKTSGYSVYCAEDPVATELCEGRKNGISYGWSRDHNFSANILELRPAQTRYEVFQKGELLGEVLLGIPGRHNVLNSLAAISLAVSVGVPFSSIKQALESFRGARRRFEVKYSGSQYQIIDDYGHHPTEIKATLATAKALNPKRIVCLFQPHRYSRTQLLKQEFGGAFNDVDVLCVTDVYAASEKPLPGVSGETILEEVKLQAPGVECHSTPKLLNARDLIGSKLRPGDLLITLGAGNVHEVGSALARDLKVAEQLTTVLNREGGGTVKLYEPMANHTTIRLGGPAQYWIEPMTIQGFAEVVKALRAALIPIRVIGRGSNLLVRDGGIKGAVLHPSKGEFDEVRVDGNFIFAATGVRLKKIASAARAAGLGGFEWMEGIPGNLGGALRMNAGAMGLQTFDQVVSVRFLDGNGELREKMKHEIDHQYRSVPELDRHFAVSAVLQGRPAEAAEIDEKLAASHQKRRGSQPIGASAGCIFKNPGPVPAGKLVDELGLKGRSFGKAIVSDVHGNFILNSGGGTARDVQDLISDIKQVALQERGIMLETEVQIIGEEEPLPL
On to B1, for which the Km was 470 ± 160 µM in data set [1], 90 ± 25 µM in data set [2] and 25 ± 10 µM in data set [3]. Besides, in data set [3], the turnover number (kcat) came out at 8 s⁻¹.
